# Molecular target: alpha fetal protein (AFP) (Homo sapiens, UniProt P02771)
# Assay: ELISA
# alpha fetal protein (AFP), sequence (P02771 19-609): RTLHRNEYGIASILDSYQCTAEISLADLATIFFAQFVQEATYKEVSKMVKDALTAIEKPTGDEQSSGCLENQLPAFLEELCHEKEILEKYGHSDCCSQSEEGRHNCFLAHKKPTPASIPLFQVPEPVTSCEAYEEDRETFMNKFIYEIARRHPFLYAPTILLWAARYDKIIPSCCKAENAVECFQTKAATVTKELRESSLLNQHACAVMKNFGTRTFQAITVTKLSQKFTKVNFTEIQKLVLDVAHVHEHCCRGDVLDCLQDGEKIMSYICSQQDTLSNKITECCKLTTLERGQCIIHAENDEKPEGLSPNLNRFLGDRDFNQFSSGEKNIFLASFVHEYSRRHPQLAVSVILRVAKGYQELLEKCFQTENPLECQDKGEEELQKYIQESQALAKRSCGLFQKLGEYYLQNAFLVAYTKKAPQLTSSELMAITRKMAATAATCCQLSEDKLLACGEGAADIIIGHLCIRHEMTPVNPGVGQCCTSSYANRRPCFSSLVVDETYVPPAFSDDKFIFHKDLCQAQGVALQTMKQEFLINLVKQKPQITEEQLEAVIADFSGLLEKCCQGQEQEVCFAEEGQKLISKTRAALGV
row,Binder,binding result
1,"anti-AFP nanobody A1, phage-displayed (VHH) VHH: QVQLVESGGGLVQSGGSLRLSCAASMRGFRIVAGGWYRQSPGKQRELVADINYQDDTNYGDFVKGRFTISRDSAKNTLYLQMNSLKPEDTAVYYCSALSVIGNEFWGQGTQVTVSS",binds
2,"anti-AFP nanobody A2, phage-displayed (VHH) VHH: QVQLVESGGGLVQAGGSLGLSCAASGLGFSIVAGGWFRQAPGKERELVAAIGTGTGDINYGDSVKGRFTISSDSAKNTVYLQMNSLKPEDTAVYFCATTERYYTGSYDSRARPQSYGYWGQGTQVTVSS",binds
